Experimental data published in the supplement of paper PMC7877785.
± gives the uncertainty stated by the source.

Assay: self-splicing fitness, log relative to wild type (ln ratio); higher = more splicing; Tetrahymena group I intron in knt gene, E. coli kanamycin selection, DiMSum; sequences stand for … in CUCUCU…GGAGGGAAAAGUUAUCAGGCAUGCACCUGGUAGCUAGUCUUUAAACCAAUAGAUUGCAUCGGUUUAAAAGGCAAGACCGUCAAAUUGCGGGAAAGGGGUCAACAGCCGUUCAGUACCAAGUCUCAGGGGAAACUUUGAGAUGGCCUUGCAAAGGGUAUGGUAAUAAGCUGACGGACAUGGUCCUAACCACGCAGCCAAGUCCUAAGUCAACAGAUCUUCUGUUGAUAUGGAUGCAGUUCACAGACUAAAUGUCGGUCGGGGAAGAUGUAUUCUUCUCAUAAGAUAUAGUCGGACCUCUCCUUAAUGGGAGCUAGCGGAUGAAGUGAUGCAACACUGGAGCCGCUGGGAACUAAUUUGUAUGCGAAAGUAUAUUGAUUAGUUUUGGAGUACUCGUGGUCG
In short: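 The eight P1ex-region nucleotides of an intron in the knt kanamycin-resistance gene on pET-22b(+) were all randomised and the library put into E. coli BL21(DE3). Six replicate transformations were grown overnight at 37°C or 30°C on LB agar with or without 25 μg/mL kanamycin, together with 100 μg/mL carbenicillin, 50 μM IPTG and 0.2% rhamnose. Colonies were pooled and amplicon-sequenced on an Illumina HiSeq 2500. Fitness from DiMSum is the error-weighted combination of wild-type-normalised replicate fold changes, kanamycin over none.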

Row | Sequence | self-splicing fitness (ln) (30 °C) | self-splicing fitness (ln) (37 °C)
1 | CUGAAGCAAUAUUACGAUUU | -3.34 ± 0.2 | -1.6 ± 0.24
2 | GGCCAGCAAUAUUACGGUUC | -3.72 ± 0.17 | -0.463 ± 0.12
3 | UUGGAGCAAUAUUACGGUAU | -2.95 ± 0.26 | -1.98 ± 0.28
4 | UCUCAGCAAUAUUACGUCAA | -3.21 ± 0.27 | -2.35 ± 0.21
5 | UGAAAGCAAUAUUACGGAAC | -2.58 ± 0.22 | -0.53 ± 0.25
6 | CACCAGCAAUAUUACGCUCU | -3.85 ± 0.2 | -1.48 ± 0.15
7 | CCCCAGCAAUAUUACGUUUA | -3.99 ± 0.16 | -2.35 ± 0.15
8 | UGUAAGCAAUAUUACGGUGG | -3.54 ± 0.19 | -1.27 ± 0.13
9 | UGCGAGCAAUAUUACGCGAG | -3.16 ± 0.23 | -1.79 ± 0.25
10 | GUAGAGCAAUAUUACGCUUU | -2.36 ± 0.19 | -2 ± 0.23
11 | CACCAGCAAUAUUACGUCAG | -0.342 ± 0.051 | 0.0517 ± 0.067
12 | AUGGAGCAAUAUUACGCGAC | -1.94 ± 0.28 | -2.79 ± 0.43
13 | GCACAGCAAUAUUACGGACC | -1.43 ± 0.11 | 0.156 ± 0.14
14 | ACGAAGCAAUAUUACGCACA | -0.494 ± 0.096 | -0.0286 ± 0.098
15 | AGUAAGCAAUAUUACGGGAU | -3.01 ± 0.25 | -1.12 ± 0.15
16 | AGUGAGCAAUAUUACGGGCU | -4.57 ± 0.39 | -2.72 ± 0.3
17 | AAUCAGCAAUAUUACGAAAG | -1.78 ± 0.12 | -0.272 ± 0.13
18 | CGCCAGCAAUAUUACGACGC | -3.21 ± 0.2 | -2.97 ± 0.35
19 | GGGUAGCAAUAUUACGAGAC | -3.48 ± 0.32 | -1.9 ± 0.42
20 | AUAUAGCAAUAUUACGUACU | -0.531 ± 0.16 | -0.188 ± 0.19
21 | UGAUAGCAAUAUUACGACUU | -0.653 ± 0.17 | -0.431 ± 0.12
22 | CGCUAGCAAUAUUACGCCAC | -3.86 ± 0.43 | -1.09 ± 0.26
23 | GAUGAGCAAUAUUACGGUGA | -2.21 ± 0.28 | -1.76 ± 0.27
24 | AAACAGCAAUAUUACGUAGC | -4.24 ± 0.16 | -2.98 ± 0.18
25 | CAGAAGCAAUAUUACGGAUG | -2.75 ± 0.17 | -2.6 ± 0.21

Row | Sequence | self-splicing fitness (ln) (30 °C) | self-splicing fitness (ln) (37 °C)
26 | AUCGAGCAAUAUUACGCUAA | -3.48 ± 0.21 | -2.88 ± 0.18
27 | GGAAAGCAAUAUUACGAUUA | -0.527 ± 0.16 | 0.788 ± 0.16
28 | CGUAAGCAAUAUUACGCUUU | -3.21 ± 0.23 | -2.31 ± 0.2
29 | ACUAAGCAAUAUUACGUACA | -1.55 ± 0.086 | -1.14 ± 0.087
30 | ACCUAGCAAUAUUACGGAAU | -1.96 ± 0.08 | -1.19 ± 0.09
31 | AUGAAGCAAUAUUACGUUUC | -4.39 ± 0.2 | -3.03 ± 0.15
32 | GGUUAGCAAUAUUACGAUUC | -0.602 ± 0.11 | -0.718 ± 0.17
33 | UACAAGCAAUAUUACGUCGG | -2.46 ± 0.082 | -0.921 ± 0.088
34 | CCGCAGCAAUAUUACGGGGC | -3.25 ± 0.24 | -2.21 ± 0.28
35 | GUUGAGCAAUAUUACGCAAU | -2.68 ± 0.2 | -3.31 ± 0.29
36 | GGUCAGCAAUAUUACGCAAU | -0.0569 ± 0.099 | 0.16 ± 0.12
37 | UUAUAGCAAUAUUACGGCAA | -0.0783 ± 0.11 | -0.348 ± 0.1
38 | CUCAAGCAAUAUUACGCCGG | -2.92 ± 0.38 | -1.53 ± 0.31
39 | AUGAAGCAAUAUUACGCACA | 0.703 ± 0.097 | 0.63 ± 0.14
40 | AUAGAGCAAUAUUACGAGAU | -0.944 ± 0.27 | -1.72 ± 0.4
41 | AUUAAGCAAUAUUACGGGUG | -1.87 ± 0.13 | -1.69 ± 0.16
42 | GUCUAGCAAUAUUACGAGAU | -3.31 ± 0.26 | -2.32 ± 0.22
43 | AUUCAGCAAUAUUACGAGCG | -1.08 ± 0.078 | -0.441 ± 0.1
44 | GAGCAGCAAUAUUACGCCGA | -1.55 ± 0.17 | -0.726 ± 0.18
45 | UUCUAGCAAUAUUACGCCCG | -1.09 ± 0.27 | -0.74 ± 0.4
46 | CGCAAGCAAUAUUACGCCAU | -3.9 ± 0.26 | -2.61 ± 0.19
47 | CUGAAGCAAUAUUACGAGGC | -3.15 ± 0.17 | -1.69 ± 0.16
48 | GUUAAGCAAUAUUACGGUGU | -1.58 ± 0.11 | -0.8 ± 0.12
49 | GAAGAGCAAUAUUACGUAGC | -2.27 ± 0.21 | -2.31 ± 0.21
50 | UUAGAGCAAUAUUACGUUUC | -3.04 ± 0.2 | 

Row | Sequence | self-splicing fitness (ln) (30 °C) | self-splicing fitness (ln) (37 °C)
51 | CCGCAGCAAUAUUACGUCUG | -3.34 ± 0.17 | -3.13 ± 0.18
52 | CGCUAGCAAUAUUACGCAGG | -3.17 ± 0.18 | -1.83 ± 0.23
53 | AACGAGCAAUAUUACGGUCC |  | -1.13 ± 0.31
54 | UCCCAGCAAUAUUACGAGGA | -2.18 ± 0.11 | -1.36 ± 0.12
55 | UCUGAGCAAUAUUACGGAAU | -3.33 ± 0.34 | -1.88 ± 0.27
56 | AUUUAGCAAUAUUACGUGCU | -2.78 ± 0.11 | -0.856 ± 0.1
57 | CACCAGCAAUAUUACGGACG | -0.37 ± 0.058 | 0.374 ± 0.08
58 | GGAAAGCAAUAUUACGCUGA | -2.94 ± 0.22 | -1.9 ± 0.16
59 | GACUAGCAAUAUUACGGAGA | -3.49 ± 0.23 | -2.04 ± 0.19
60 | CGUAAGCAAUAUUACGUAGU | -3.74 ± 0.27 | -1.48 ± 0.18
61 | UCGCAGCAAUAUUACGUAAG | -1.4 ± 0.099 | -1.12 ± 0.11
62 | GACGAGCAAUAUUACGUACG | -2.63 ± 0.29 | -2.17 ± 0.33
63 | CAGCAGCAAUAUUACGAGCU | -3.07 ± 0.21 | -1.76 ± 0.2
64 | CGAGAGCAAUAUUACGACUC | -2.03 ± 0.42 | -0.968 ± 0.39
65 | AGAUAGCAAUAUUACGAACG | -1.12 ± 0.12 | -0.323 ± 0.13
66 | CGUCAGCAAUAUUACGGUGU | -2.66 ± 0.12 | -0.454 ± 0.1
67 | CUCCAGCAAUAUUACGUAAC | -3.3 ± 0.13 | -3.08 ± 0.2
68 | GUAAAGCAAUAUUACGUAGU | -2.42 ± 0.12 | -1.36 ± 0.18
69 | GGUAAGCAAUAUUACGGACU | -1.43 ± 0.17 | -0.246 ± 0.2
70 | UUUGAGCAAUAUUACGGGUG | -4.1 ± 0.3 | -2.22 ± 0.21
71 | UAAGAGCAAUAUUACGAUUC |  | -0.537 ± 0.43
72 | CUGAAGCAAUAUUACGUGUC | -2.53 ± 0.14 | -2.81 ± 0.28
73 | CAGGAGCAAUAUUACGCGCU | -2.49 ± 0.2 | -2.62 ± 0.41
74 | GAUCAGCAAUAUUACGAUCG | -1.17 ± 0.096 | 0.0523 ± 0.13
75 | CGAGAGCAAUAUUACGUGGA | -3.7 ± 0.26 | -2.89 ± 0.23
